Assay [1] concerns the target Arabidopsis thaliana NPL4 (Arabidopsis thaliana) (UniProt O82264). As to the kind of experiment: MST.
Assay [2] shares this target. As to the kind of experiment: MST. This is another data set of the same source.
Assay [3] has as its target Arabidopsis thaliana CDC48A (Arabidopsis thaliana) (UniProt P54609). As to the kind of experiment: ITC.
The target is the same in assay [4]. As to the kind of experiment: cross-linking + SEC-MALS. On the technique in general: In gel filtration, larger molecules generally elute earlier.
For assay [5] the target is unchanged. Put plainly: ITC. This is another data set of the same source. Background: In ITC the heat of successive injections is recorded.

Where two headings read alike, the source gives them in different places.

Chain of Arabidopsis thaliana CDC48A (Arabidopsis thaliana) (P54609 whole entry): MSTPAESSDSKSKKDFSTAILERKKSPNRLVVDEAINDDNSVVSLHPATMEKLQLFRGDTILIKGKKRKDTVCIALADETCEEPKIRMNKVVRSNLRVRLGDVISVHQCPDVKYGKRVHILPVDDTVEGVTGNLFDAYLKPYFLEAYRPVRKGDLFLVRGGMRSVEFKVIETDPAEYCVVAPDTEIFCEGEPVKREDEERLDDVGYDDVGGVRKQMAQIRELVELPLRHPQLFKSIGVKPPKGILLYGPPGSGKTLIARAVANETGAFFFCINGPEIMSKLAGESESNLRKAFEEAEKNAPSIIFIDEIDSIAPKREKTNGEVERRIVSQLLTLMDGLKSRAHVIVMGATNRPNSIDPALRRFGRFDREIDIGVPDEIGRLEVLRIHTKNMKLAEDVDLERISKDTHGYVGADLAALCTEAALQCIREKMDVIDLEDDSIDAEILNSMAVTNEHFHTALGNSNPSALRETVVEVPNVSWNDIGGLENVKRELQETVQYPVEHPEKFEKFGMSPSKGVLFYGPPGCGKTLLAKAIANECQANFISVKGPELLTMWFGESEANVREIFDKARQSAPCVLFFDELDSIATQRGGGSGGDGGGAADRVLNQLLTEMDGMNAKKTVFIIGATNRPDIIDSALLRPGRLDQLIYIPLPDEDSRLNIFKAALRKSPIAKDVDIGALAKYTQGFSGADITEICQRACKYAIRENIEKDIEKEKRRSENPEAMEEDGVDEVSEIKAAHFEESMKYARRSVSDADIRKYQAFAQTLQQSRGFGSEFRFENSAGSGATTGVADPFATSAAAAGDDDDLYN
Chain of Arabidopsis thaliana NPL4 (Arabidopsis thaliana) (O82264 whole entry): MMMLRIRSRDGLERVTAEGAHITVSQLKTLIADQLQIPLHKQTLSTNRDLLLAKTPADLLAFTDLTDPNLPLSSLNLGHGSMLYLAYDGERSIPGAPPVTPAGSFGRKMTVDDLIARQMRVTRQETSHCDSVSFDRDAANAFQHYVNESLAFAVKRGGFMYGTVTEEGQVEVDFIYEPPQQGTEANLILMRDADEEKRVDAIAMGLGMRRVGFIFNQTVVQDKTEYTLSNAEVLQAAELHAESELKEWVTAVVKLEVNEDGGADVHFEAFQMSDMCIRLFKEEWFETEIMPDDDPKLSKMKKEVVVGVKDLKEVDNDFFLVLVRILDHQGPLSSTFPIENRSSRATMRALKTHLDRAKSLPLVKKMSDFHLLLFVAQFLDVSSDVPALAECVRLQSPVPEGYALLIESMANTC

As a reminder, the Kd is the equilibrium constant for the complex coming apart. Lower therefore signals tighter binding. For “Arabidopsis thaliana UFD1A (natural protein)”, the Kd in assay [1] and in assay [2] was above 200 µM throughout.

For “Arabidopsis thaliana UFD1B (from UniProt Q9SJV0 1-340) (natural protein)”, in assay [3], the Kd was 4.4 µM and the stoichiometry N (cofactor per AtCDC48A hexamer) stood at 1. For the same substance, the stoichiometry N (copy per six AtCDC48A) in assay [4] was 1.

“Arabidopsis thaliana NPL4 (from UniProt O82264 1-413) (natural protein)”: in assay [3], the Kd amounted to 2.6 µM and the stoichiometry N (AtNPL4 per AtCDC48A hexamer) is 1. The stoichiometry N (copy per six AtCDC48A) in assay [4] amounted to 1. The substance also returned a dissociation constant (Kd) in assay [5] of 7.1 µM.

The values above are taken from article doi:10.1101/2025.03.28.645892.
